{"source": "patent US20240059757A1", "key": {"[1]": {"target": "SARS-CoV-2 Spike protein (SARS-CoV-2 Wuhan-Hu-1) (UniProt P0DTC2)", "test": "cell-based or functional assay"}, "[2]": {"target": "SC2018 spike RBD (SC2018)", "test": "BLI; *no optimal fitting"}, "[3]": {"target": "YN2013 spike RBD (YN2013)", "test": "ELISA"}, "[4]": {"target": "PANG/GX spike protein RBD (PANG/GX)", "test": "ELISA"}, "[5]": {"target": "BtKY72 spike protein RBD (BtKY72)", "test": "ELISA"}, "[6]": {"target": "SX2011 spike RBD (SX2011)", "test": "ELISA"}, "[7]": {"target": "Anlong112 spike RBD (Anlong112)", "test": "ELISA"}, "[8]": {"target": "BGR2008 spike protein RBD (BGR2008)", "test": "ELISA"}, "[9]": {"target": "SC2018 spike RBD (SC2018)", "test": "ELISA"}, "[10]": {"target": "RaTG13 spike protein RBD (RaTG13)", "test": "ELISA"}, "[11]": {"target": "PANG/GD spike protein RBD (PANG/GD)", "test": "ELISA"}, "[12]": {"target": "BGR2008 spike protein RBD (BGR2008)", "test": "BLI"}, "[13]": {"target": "WIV1 spike protein RBD (WIV1)", "test": "BLI"}, "[14]": {"target": "PANG/GD spike protein (PANG/GD)", "test": "cell-based or functional assay"}, "[15]": {"target": "PANG/GX spike protein (PANG/GX)", "test": "cell-based or functional assay"}, "[16]": {"target": "BGR2008 spike protein RBD (BGR2008)", "test": "BLI", "remark": "listed apart in the source"}, "[17]": {"target": "WIV1 spike protein RBD (WIV1)", "test": "BLI", "remark": "listed apart in the source"}, "[18]": {"target": "BtKY72 spike protein RBD (BtKY72)"}, "[19]": {"target": "BGR2008 spike protein RBD (BGR2008)"}, "[20]": {"target": "ZC45 spike protein RBD (ZC45)"}, "[21]": {"target": "PANG/GX spike protein RBD (PANG/GX)"}, "[22]": {"target": "SC2018 spike RBD (SC2018)"}, "[23]": {"target": "RaTG13 spike protein RBD (RaTG13)"}, "[24]": {"target": "WIV1 spike protein RBD (WIV1)"}, "[25]": {"target": "PANG/GD spike protein RBD (PANG/GD)"}}, "note": "Read-outs that look alike come from different tables or passages of the source."}
{"substance": "S2E12-LS (antibody)", "values": [{"measurement": "neutralization EC50 (interpolated)", "setting": "[1]", "value": 0.0014, "unit": "µg/mL"}, {"measurement": "neutralization EC90 (interpolated)", "setting": "[1]", "value": 0.0119, "unit": "µg/mL"}, {"measurement": "neutralization IC50", "setting": "[1]", "value": 0.0014, "unit": "µg/mL"}]}
{"substance": "S2M11-LS (antibody)", "values": [{"measurement": "neutralization EC50 (interpolated)", "setting": "[1]", "value": 0.0011, "unit": "µg/mL"}, {"measurement": "neutralization EC90 (interpolated)", "setting": "[1]", "value": 0.0144, "unit": "µg/mL"}, {"measurement": "neutralization IC50", "setting": "[1]", "value": 0.000914, "unit": "µg/mL"}]}
{"substance": "S2X259 (antibody)", "values": [{"measurement": "Kd", "setting": "[2]", "value": 6.93, "unit": "nM"}, {"measurement": "EC50", "setting": "[3]", "value": "0.001 to 0.05", "unit": "µg/mL"}, {"measurement": "EC50", "setting": "[4]", "value": 0.0281, "unit": "µg/mL"}, {"measurement": "EC50", "setting": "[5]", "value": 0.0376, "unit": "µg/mL"}, {"measurement": "EC50", "setting": "[6]", "value": "0.001 to 0.05", "unit": "µg/mL"}, {"measurement": "EC50", "setting": "[7]", "value": "0.1 to 1", "unit": "µg/mL"}, {"measurement": "EC50", "setting": "[8]", "value": 0.0308, "unit": "µg/mL"}, {"measurement": "EC50", "setting": "[9]", "value": "0.001 to 0.05", "unit": "µg/mL"}, {"measurement": "EC50", "setting": "[10]", "value": 0.0401, "unit": "µg/mL"}, {"measurement": "EC50", "setting": "[11]", "value": 0.0362, "unit": "µg/mL"}, {"measurement": "Kd", "setting": "[12]", "value": 1.04, "unit": "nM"}, {"measurement": "Kd", "setting": "[13]", "value": 0.57, "unit": "nM"}, {"measurement": "neutralization IC50", "setting": "[14]", "value": 0.179, "unit": "µg/mL"}, {"measurement": "neutralization IC50", "setting": "[15]", "value": 1.32, "unit": "µg/mL"}, {"measurement": "Kd", "setting": "[16]", "value": 1.24, "unit": "nM"}, {"measurement": "Kd", "setting": "[17]", "value": 0.61, "unit": "nM"}]}
{"substance": "S2X259 Fab", "values": [{"measurement": "Kd", "setting": "[18]", "value": 0.4, "unit": "nM"}, {"measurement": "Kd", "setting": "[19]", "value": 3.6, "unit": "nM"}, {"measurement": "Kd", "setting": "[20]", "value": 4000, "unit": "nM"}, {"measurement": "Kd", "setting": "[21]", "value": 10, "unit": "nM"}, {"measurement": "Kd", "setting": "[22]", "value": 64, "unit": "nM"}, {"measurement": "Kd", "setting": "[23]", "value": 1.1, "unit": "nM"}, {"measurement": "Kd", "setting": "[24]", "value": 1.4, "unit": "nM"}, {"measurement": "Kd", "setting": "[25]", "value": 0.2, "unit": "nM"}]}
